Measured values: patent publication US20240318160A1

Legend:
Assay in all cases: TAL and PAL enzyme kinetics
N[C@@H](Cc1ccccc1)C(=O)O [1] = format: biochemical, Arabidopsis thaliana; conditions: other: PAL assay (L-Phe), pH 8.5, 30° C.
Method: (§3) A mixture containing 100 mM Tris-HCl (pH 8.5), 1% glycerol, and purified enzyme in a total volume of 50 μl was preincubated for 3 min at 30° C. […] The reactions were terminated by addition of 6N acetic acid (10 μl).
(§4) The kinetic parameters of the recombinant enzymes were determined using HPLC. Reaction mixtures containing 100 mM Tris-HCl (pH 8.5), 1% glycerol, and purified enzyme (0.15 μg for PAL assay and 1 μg for TAL assay) in a 50 μl total volume were preincubated for 3 min at 30° C. […] After 10 min and 20 min incubations for PAL and TAL assay, respectively, at 30° C., the reaction was terminated by addition of 6N acetic acid (10 μl). […] The products were quantified using calibration curves generated using authentic standards. Non-linear hyperbolic regression analyses were conducted using the Excel Solver tool to calculate Km and Vmax values.

[2] = tested on: N[C@@H](Cc1ccc(O)cc1)C(=O)O; format: biochemical, Arabidopsis thaliana; conditions: other: TAL assay (L-Tyr), pH 8.5, 30° C.
Method: as §3, §4
N[C@@H](Cc1ccccc1)C(=O)O [3] = format: biochemical, Brachypodium distachyon; conditions: other: PAL assay (L-Phe), pH 8.5, 30° C.
Method: (§1) All substrate solutions were prepared with 0.01 N NaOH to increase the solubility of L-Tyr. A mixture containing 100 mM Tris-HCl (pH 8.5), 1% glycerol, and purified enzyme in a total volume of 50 μl was preincubated for 3 min at 30° C. PAL and TAL reactions were started by addition of 50 μl of 1 mM substrate (L-Phe or L-Tyr, respectively) and were incubated at 30° C. for 20 min unless otherwise noted. The reactions were terminated by addition of 6N acetic acid (10 μl).
(§2) The kinetic parameters of the recombinant enzymes were determined using HPLC. Reaction mixtures containing 100 mM Tris-HCl (pH 8.5), 1% glycerol, and purified enzyme (0.15 μg for PAL assay and 1 μg for TAL assay) in a 50 μl total volume were preincubated for 3 min at 30° C. PAL and TAL reactions were started by addition of 50 μl substrate solution prepared with 0-4 mM L-Phe and 0-2 mM L-Tyr. After 10 min and 20 min incubations for PAL and TAL assay, respectively, at 30° C., the reaction was terminated by addition of 6N acetic acid (10 μl). […] The products were quantified using calibration curves generated using authentic standards. Non-linear hyperbolic regression analyses were conducted using the Excel Solver tool to calculate Km and Vmax values.

[4] = tested on: N[C@@H](Cc1ccc(O)cc1)C(=O)O; format: biochemical, Brachypodium distachyon; conditions: other: TAL assay (L-Tyr), pH 8.5, 30° C.
Method: as §1, §2

N[C@@H](Cc1ccccc1)C(=O)O [5] = format: biochemical, Brachypodium distachyon; conditions: other: PAL assay (L-Phe), pH 8.5, 30° C.; remark: listed apart in the source
Method: as §4
N[C@@H](Cc1ccccc1)C(=O)O [6] = format: biochemical, Sorghum bicolor; conditions: other: PAL assay (L-Phe), pH 8.5, 30° C.
Method: as §1, §2

[7] = tested on: N[C@@H](Cc1ccc(O)cc1)C(=O)O; format: biochemical, Sorghum bicolor; conditions: other: TAL assay (L-Tyr), pH 8.5, 30° C.
Method: as §1, §2

N[C@@H](Cc1ccccc1)C(=O)O [8] = format: biochemical, Sorghum bicolor; conditions: other: PAL assay (L-Phe), pH 8.5, 30° C.; remark: listed apart in the source
Method: as §4

Brachypodium distachyon BdPTAL variant H123F (BdPTAL^H123F) (Brachypodium distachyon; H123F), sequence (chain, as listed by the source H123F H123F H123F): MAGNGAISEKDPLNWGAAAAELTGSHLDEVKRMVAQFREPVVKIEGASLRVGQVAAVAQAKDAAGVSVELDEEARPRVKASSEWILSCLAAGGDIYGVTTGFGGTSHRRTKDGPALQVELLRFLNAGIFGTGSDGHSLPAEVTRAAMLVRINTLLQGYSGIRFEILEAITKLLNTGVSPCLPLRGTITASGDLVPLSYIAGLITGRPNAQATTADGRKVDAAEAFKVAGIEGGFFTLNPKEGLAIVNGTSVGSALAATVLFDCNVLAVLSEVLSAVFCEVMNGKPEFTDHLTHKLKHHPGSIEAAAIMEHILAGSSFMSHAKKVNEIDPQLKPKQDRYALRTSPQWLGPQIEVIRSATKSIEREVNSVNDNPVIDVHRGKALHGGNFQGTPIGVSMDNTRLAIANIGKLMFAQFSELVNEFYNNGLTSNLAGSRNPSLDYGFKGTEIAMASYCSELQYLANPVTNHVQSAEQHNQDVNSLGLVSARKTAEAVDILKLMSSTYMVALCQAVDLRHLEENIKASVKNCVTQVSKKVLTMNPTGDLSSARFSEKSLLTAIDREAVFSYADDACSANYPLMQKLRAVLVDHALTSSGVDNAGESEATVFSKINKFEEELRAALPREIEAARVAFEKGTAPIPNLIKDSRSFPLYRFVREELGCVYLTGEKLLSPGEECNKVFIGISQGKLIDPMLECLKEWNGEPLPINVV
Arabidopsis thaliana AtPAL1 variant S114I (as printed in Table 3; AtPAL1^S116I, SEQ ID NO: 260, elsewhere) (Arabidopsis thaliana; S116I), sequence (chain, as listed by the source S114I S116I S116I): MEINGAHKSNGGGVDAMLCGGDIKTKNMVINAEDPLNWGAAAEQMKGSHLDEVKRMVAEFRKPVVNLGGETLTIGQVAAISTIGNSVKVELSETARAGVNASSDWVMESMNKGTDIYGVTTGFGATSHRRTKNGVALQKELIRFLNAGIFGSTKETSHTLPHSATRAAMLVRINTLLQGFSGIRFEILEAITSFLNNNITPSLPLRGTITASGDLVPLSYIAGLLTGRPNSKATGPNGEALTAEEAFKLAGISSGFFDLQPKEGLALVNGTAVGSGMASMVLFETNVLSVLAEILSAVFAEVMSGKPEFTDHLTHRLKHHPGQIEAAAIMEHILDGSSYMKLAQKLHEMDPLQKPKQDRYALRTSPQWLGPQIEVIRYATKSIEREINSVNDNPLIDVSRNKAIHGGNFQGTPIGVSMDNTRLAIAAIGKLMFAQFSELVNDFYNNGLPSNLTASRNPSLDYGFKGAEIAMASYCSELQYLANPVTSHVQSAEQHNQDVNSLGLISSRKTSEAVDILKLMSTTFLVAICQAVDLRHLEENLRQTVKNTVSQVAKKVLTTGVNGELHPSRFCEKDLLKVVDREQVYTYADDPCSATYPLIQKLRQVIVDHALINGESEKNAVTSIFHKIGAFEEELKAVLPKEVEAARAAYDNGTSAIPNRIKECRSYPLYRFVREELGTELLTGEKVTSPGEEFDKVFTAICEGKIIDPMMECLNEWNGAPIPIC
Sorghum bicolor SbPTAL, wild type (Sorghum bicolor), sequence (chain, as listed by the source): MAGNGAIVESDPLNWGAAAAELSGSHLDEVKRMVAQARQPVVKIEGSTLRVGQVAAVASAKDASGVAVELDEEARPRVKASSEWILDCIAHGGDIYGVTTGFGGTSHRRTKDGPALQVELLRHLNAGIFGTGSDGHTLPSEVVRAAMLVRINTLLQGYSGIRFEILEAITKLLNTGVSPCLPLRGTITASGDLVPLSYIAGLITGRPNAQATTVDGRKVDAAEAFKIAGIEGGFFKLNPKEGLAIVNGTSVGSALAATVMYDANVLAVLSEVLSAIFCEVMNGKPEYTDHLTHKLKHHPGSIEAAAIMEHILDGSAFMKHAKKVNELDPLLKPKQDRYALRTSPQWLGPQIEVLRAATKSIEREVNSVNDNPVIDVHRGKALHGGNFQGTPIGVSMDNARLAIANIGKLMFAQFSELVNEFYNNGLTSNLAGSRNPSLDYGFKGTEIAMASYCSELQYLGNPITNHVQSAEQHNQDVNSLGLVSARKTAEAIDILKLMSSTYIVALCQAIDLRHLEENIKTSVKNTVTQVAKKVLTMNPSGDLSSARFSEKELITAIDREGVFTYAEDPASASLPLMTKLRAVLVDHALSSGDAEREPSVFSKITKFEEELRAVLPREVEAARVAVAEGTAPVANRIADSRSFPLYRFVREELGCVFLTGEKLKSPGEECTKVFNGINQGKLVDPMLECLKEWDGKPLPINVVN
Sorghum bicolor SbPTAL variant H123F (SbPTAL^H123F) (Sorghum bicolor; H123F), sequence (chain, as listed by the source H123F H123F H123F): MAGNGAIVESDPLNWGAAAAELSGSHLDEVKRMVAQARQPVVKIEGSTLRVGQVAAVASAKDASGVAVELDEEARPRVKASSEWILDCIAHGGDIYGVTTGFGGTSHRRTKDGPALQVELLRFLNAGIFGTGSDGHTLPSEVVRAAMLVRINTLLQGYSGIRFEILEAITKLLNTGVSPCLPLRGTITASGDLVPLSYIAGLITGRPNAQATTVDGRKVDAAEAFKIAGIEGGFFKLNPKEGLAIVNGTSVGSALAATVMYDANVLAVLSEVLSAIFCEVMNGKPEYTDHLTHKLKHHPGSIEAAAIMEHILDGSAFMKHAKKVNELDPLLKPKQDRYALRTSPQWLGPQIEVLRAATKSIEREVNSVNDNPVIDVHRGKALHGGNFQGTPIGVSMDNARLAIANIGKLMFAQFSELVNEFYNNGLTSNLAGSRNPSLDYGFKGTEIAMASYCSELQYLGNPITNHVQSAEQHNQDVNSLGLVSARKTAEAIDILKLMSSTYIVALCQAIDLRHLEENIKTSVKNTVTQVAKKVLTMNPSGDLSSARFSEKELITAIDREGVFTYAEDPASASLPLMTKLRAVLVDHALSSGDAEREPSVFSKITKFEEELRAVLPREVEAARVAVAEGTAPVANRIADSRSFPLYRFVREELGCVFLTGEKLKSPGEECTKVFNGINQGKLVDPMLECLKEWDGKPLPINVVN
Arabidopsis thaliana AtPAL1 variant F144H (AtPAL1^F144H), SEQ ID NO: 261 (Arabidopsis thaliana; F144H), sequence (chain, as listed by the source F144H F144H F144H): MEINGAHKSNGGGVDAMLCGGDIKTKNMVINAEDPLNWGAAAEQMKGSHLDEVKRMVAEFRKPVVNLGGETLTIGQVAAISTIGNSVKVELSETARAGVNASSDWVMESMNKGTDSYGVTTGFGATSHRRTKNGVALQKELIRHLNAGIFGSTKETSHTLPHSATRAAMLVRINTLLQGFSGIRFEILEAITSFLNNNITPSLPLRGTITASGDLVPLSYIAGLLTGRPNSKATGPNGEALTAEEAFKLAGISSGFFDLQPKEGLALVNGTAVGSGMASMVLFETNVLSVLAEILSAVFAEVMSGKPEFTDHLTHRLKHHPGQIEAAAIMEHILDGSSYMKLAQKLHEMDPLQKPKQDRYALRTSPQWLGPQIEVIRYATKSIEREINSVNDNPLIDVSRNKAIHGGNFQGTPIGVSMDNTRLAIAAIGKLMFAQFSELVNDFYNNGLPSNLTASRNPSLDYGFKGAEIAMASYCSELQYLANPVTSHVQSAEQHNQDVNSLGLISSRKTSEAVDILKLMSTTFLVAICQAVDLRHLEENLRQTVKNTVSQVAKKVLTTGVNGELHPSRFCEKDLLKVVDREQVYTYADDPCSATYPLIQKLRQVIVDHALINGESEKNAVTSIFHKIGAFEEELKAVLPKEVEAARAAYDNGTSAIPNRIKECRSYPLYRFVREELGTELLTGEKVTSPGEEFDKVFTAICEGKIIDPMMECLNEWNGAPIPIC
Brachypodium distachyon BdPTAL, wild type (Brachypodium distachyon), sequence (chain, as listed by the source): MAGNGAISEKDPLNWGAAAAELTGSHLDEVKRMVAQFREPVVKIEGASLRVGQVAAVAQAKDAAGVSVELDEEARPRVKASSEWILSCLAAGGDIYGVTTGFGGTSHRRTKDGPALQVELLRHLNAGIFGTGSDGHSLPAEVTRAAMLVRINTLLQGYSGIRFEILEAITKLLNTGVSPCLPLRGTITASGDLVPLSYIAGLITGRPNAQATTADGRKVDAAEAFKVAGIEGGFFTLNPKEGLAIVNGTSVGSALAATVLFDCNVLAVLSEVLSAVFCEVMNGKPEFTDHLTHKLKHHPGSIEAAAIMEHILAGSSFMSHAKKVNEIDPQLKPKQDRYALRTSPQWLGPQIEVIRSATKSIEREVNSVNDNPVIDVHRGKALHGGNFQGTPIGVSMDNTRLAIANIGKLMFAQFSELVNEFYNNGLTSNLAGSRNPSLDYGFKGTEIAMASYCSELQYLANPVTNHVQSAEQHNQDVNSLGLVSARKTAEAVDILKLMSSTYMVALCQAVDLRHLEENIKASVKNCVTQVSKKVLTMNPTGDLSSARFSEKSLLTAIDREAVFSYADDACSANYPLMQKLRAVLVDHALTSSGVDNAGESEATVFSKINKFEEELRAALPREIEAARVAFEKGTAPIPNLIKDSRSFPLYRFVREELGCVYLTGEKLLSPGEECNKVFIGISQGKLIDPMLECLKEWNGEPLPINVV
Arabidopsis thaliana AtPAL1, wild type, SEQ ID NO: 144 (Arabidopsis thaliana), sequence (chain, as listed by the source): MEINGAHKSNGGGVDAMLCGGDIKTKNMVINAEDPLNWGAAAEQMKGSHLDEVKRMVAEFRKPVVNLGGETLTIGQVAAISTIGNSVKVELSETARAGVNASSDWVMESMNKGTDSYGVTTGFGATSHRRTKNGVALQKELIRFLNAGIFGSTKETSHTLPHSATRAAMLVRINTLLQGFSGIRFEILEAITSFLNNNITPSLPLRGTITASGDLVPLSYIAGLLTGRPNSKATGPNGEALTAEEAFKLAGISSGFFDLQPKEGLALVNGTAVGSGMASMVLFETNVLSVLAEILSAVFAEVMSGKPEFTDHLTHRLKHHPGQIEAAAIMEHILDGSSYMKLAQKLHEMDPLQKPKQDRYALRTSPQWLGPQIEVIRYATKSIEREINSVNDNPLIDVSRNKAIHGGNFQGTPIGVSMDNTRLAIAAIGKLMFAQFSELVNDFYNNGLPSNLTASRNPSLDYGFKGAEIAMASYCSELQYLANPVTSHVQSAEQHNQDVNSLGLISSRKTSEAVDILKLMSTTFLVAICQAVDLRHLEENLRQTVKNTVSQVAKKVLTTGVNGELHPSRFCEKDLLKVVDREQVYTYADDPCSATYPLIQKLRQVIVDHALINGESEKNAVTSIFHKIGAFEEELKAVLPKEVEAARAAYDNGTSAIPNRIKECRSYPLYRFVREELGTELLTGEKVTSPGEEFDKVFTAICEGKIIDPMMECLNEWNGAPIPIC

## Arabidopsis thaliana AtPAL1 variant F144H (AtPAL1^F144H), SEQ ID NO: 261 (Arabidopsis thaliana; F144H)
N[C@@H](Cc1ccccc1)C(=O)O [1]
  Km: 1198.9 ± 21.1 µM
  kcat: 1.58 ± 0.04 s⁻¹
  kcat/Km: 1320 ± 20 M⁻¹ s⁻¹

## Arabidopsis thaliana AtPAL1 variant F144H/S114I (as printed in Table 3; AtPAL1^F144H_S116I, SEQ ID NO: 146, elsewhere) (Arabidopsis thaliana; F144H/S116I)
N[C@@H](Cc1ccccc1)C(=O)O [1]
  Km: 87.3 ± 2.9 µM
  kcat: 0.88 ± 0.01 s⁻¹
  kcat/Km: 10070 ± 440 M⁻¹ s⁻¹

## Arabidopsis thaliana AtPAL1 variant S114I (as printed in Table 3; AtPAL1^S116I, SEQ ID NO: 260, elsewhere) (Arabidopsis thaliana; S116I)
N[C@@H](Cc1ccccc1)C(=O)O [1]
  Km: 10.1 ± 1.9 µM
  kcat: 0.23 ± 0.00 s⁻¹
  kcat/Km: 23710 ± 4630 M⁻¹ s⁻¹
[2]
  Km: 515.4 ± 54.3 µM
  kcat: 0.02 ± 0.00 s⁻¹
  kcat/Km: 40 ± 0 M⁻¹ s⁻¹

## Arabidopsis thaliana AtPAL1, wild type, SEQ ID NO: 144 (Arabidopsis thaliana)
N[C@@H](Cc1ccccc1)C(=O)O [1]
  Km: 52.2 ± 3.1 µM
  kcat: 1.42 ± 0.07 s⁻¹
  kcat/Km: 27310 ± 850 M⁻¹ s⁻¹

## Brachypodium distachyon BdPTAL variant H123F (BdPTAL^H123F) (Brachypodium distachyon; H123F)
N[C@@H](Cc1ccccc1)C(=O)O [3]
  Km: 6.0 ± 1.4 µM
  kcat: 0.17 ± 0.00 s⁻¹
  kcat/Km: 29920 ± 6750 M⁻¹ s⁻¹
[4]
  Km: 765.2 ± 65.8 µM
  kcat: 0.03 ± 0.00 s⁻¹
  kcat/Km: 40 ± 0 M⁻¹ s⁻¹

## Brachypodium distachyon BdPTAL, wild type (Brachypodium distachyon)
N[C@@H](Cc1ccccc1)C(=O)O [5]
  Km: 216.6 ± 10.3 µM
  kcat: 1.05 ± 0.05 s⁻¹
  kcat/Km: 4840 ± 110 M⁻¹ s⁻¹

## Sorghum bicolor SbPTAL variant H123F (SbPTAL^H123F) (Sorghum bicolor; H123F)
N[C@@H](Cc1ccccc1)C(=O)O [6]
  Km: 3.8 ± 2.0 µM
  kcat: 0.10 ± 0.00 s⁻¹
  kcat/Km: 30970 ± 13700 M⁻¹ s⁻¹
[7]
  Km: 750.7 ± 36.8 µM
  kcat: 0.03 ± 0.00 s⁻¹
  kcat/Km: 40 ± 0 M⁻¹ s⁻¹

## Sorghum bicolor SbPTAL, wild type (Sorghum bicolor)
N[C@@H](Cc1ccccc1)C(=O)O [8]
  Km: 150.1 ± 14.4 µM
  kcat: 0.69 ± 0.01 s⁻¹
  kcat/Km: 4630 ± 490 M⁻¹ s⁻¹
